For 3 substances, Kd results are on record in publication doi:10.1101/2024.02.19.580982.

Experiment [1] addresses α-Synuclein preformed fibrils (α-Syn PFF) (mouse) (UniProt O55042). Briefly: SPR. (In general: SPR reads the build-up and loss of mass on a sensor chip optically.)
For experiment [2] the target is unchanged. Put plainly: ELISA. In general terms: In an ELISA, binding on a coated surface is turned into a signal by an enzyme label.

Where “and” joins values, the source holds several entries; their conditions need not be identical. Identical values can stand only once.

ΔLRR hNOD2-Fc, sequence (Q9HC29 whole entry, stated change not applied, the tested form may be a part): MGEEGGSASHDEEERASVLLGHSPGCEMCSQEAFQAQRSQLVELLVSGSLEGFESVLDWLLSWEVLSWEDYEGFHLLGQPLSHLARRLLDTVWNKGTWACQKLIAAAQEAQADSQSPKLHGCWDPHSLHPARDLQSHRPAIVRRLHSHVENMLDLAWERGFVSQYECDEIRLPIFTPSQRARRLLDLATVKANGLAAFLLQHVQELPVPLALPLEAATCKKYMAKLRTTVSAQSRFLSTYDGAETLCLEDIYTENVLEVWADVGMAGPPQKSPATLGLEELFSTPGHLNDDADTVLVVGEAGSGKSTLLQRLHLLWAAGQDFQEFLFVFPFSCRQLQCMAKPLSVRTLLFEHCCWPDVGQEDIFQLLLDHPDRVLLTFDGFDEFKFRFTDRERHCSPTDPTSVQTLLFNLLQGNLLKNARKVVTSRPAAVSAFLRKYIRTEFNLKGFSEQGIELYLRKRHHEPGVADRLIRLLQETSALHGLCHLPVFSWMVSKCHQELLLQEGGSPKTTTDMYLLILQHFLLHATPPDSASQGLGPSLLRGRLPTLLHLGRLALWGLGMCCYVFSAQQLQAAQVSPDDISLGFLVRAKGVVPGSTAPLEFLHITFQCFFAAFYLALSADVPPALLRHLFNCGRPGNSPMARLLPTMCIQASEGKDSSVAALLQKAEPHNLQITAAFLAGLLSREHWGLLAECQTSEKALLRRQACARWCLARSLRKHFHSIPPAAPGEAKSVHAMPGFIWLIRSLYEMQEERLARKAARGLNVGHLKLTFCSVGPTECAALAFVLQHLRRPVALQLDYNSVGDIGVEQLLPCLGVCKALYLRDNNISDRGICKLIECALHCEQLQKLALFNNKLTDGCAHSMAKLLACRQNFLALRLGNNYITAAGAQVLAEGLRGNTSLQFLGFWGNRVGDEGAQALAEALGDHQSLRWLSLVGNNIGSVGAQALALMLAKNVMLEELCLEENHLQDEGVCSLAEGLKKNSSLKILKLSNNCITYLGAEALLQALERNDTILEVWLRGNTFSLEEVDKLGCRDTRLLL

On to “FL hNOD2 with the Fc-tag removed by HRV 3C protease (from UniProt Q9HC29 1-1040) (natural protein)”, for which the Kd (commonly the free concentration of one partner at which half of the binding sites on the other are occupied at equilibrium, for simple one-to-one binding) in experiment [1] is 807 nM and 1190 nM.

For the substance “human IgG1 Fc-tagged human NOD2 full-length (FL hNOD2-Fc) (from UniProt Q9HC29 1-1040) (Fc fusion)”, the Kd in experiment [2] was 1200 nM.

In experiment [2], “ΔLRR hNOD2-Fc (from UniProt Q9HC29 1-1040) (Fc fusion)” gave a Kd of 2810 nM.
